Series [1] has as its target purified plasma factor B, P00751.
In series [2] the target is ST-pro-factor D-His, P00746.
A further series concerns the target ST-pro-factor D-His (UniProt P00746).
In the next series the target is pro-factor D-His (UniProt P00746).

This note sets out measurements from US20130344073.

Sequence of ST-pro-factor D-His, P00746 (P00746 whole entry, looked up): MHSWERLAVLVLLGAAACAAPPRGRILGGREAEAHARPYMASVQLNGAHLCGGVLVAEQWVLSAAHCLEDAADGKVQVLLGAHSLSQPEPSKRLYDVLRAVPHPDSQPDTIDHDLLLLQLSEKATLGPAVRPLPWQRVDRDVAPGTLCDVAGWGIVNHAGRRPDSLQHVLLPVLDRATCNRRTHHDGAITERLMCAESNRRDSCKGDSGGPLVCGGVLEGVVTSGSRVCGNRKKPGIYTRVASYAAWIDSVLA
Sequence of pro-factor D-His, P00746 (P00746 whole entry, looked up): as above
Sequence of purified plasma factor B, P00751 (P00751 26-764): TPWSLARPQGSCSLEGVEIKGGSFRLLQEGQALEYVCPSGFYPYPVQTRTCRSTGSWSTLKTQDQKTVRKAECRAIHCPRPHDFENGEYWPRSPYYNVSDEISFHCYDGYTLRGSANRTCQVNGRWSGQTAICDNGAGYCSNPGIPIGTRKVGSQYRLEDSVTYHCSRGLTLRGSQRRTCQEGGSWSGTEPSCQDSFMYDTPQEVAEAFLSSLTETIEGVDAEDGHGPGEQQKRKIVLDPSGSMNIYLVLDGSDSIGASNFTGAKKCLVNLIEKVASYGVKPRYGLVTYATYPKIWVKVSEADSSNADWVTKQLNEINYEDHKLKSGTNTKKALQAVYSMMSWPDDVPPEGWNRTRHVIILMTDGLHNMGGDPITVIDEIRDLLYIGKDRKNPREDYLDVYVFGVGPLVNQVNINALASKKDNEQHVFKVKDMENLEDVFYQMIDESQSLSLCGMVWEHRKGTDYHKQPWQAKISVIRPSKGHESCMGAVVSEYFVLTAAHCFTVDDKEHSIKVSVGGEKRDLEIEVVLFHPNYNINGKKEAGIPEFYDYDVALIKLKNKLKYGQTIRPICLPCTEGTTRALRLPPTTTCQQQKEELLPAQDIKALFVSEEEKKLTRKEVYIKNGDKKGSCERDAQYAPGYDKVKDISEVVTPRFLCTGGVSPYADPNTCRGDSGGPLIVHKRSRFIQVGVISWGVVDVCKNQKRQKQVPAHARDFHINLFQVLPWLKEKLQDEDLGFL
Sequence of pro-factor D-His (P00746 other isoform, or with tags, fused parts or gaps): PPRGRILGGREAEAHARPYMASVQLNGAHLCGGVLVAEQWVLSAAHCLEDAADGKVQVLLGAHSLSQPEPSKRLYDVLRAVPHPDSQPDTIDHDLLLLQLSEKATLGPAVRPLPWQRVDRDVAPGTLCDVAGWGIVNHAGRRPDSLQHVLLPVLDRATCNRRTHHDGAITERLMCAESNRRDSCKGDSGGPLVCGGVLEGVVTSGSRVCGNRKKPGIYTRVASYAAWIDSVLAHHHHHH
Sequence of ST-pro-factor D-His (P00746 other isoform, or with tags, fused parts or gaps): as above

B1: human MASP-3 (protein)
chain: HTVELNNMFGQIQSPGYPDSYPSDSEVTWNITVPDGFRIKLYFMHFNLESSYLCEYDYVKVETEDQVLATFCGRETTDTEQTPGQEVVLSPGSFMSITFRSDFSNEERFTGFDAHYMAVDVDECKEREDEELSCDHYCHNYIGGYYCSCRFGYILHTDNRTCRVECSDNLFTQRTGVITSPDFPNPYPKSSECLYTIELEEGFMVNLQFEDIFDIEDHPEVPCPYDYIKIKVGPKVLGPFCGEKAPEPISTQSHSVLILFHSDNSGENRGWRLSYRAAGNECPELQPPVHGKIEPSQAKYFFKDQVLVSCDTGYKVLKDNVEMDTFQIECLKDGTWSNKIPTCKIVDCRAPGELEHGLITFSTRNNLTTYKSEIKYSCQEPYYKMLNNNTGIYTCSAQGVWMNKVLGRSLPTCLPECGQPSRSLPSLVKRIIGGRNAEPGLFPWQALIVVEDTSRVPNDKWFGSGALLSASWILTAAHVLRSQRRDTTVIPVSKEHVTVYLGLHDVRDKSGAVNSSAARVVLHPDFNIQNYNHDIALVQLQEPVPLGPHVMPVCLPRLEPEGPAPHMLGLVAGWGISNPNVTVDEIISSGTRTLSDVLQYVKLPVVPHAECKTSYESRSGNYSVTENMFCAGYYEGGKDTCLGDSGGAFVIFDDLSQRWVVQGLVSWGGPEECGSKQVYGVYTKVSNYVDWVWEQMGLPQSVVEPQVER
Take B1: the “factor B cleavage (Coomassie-stained SDS-PAGE), with C3(H2O)” value in series [1] was “either MASP-3 or pro-factor D are able to mediate factor B cleavage, as long as C3 is present”. The “cleavage of pro-factor D (Western blot), 80 ng MASP-3, 70 ng substrate, 75 minutes at 37 C” value in series [2] is given as “MASP-3 cleaves approximately 50% of pro-factor D into factor D (lane 1)”.

B2: recombinant MASP-1 (CCP1-CCP2-SP) fragment (enzyme, part only; not given: amino-terminal Strep tag)
chain, part: GNECPELQPPVHGKIEPSQAKYFFKDQVLVSCDTGYKVLKDNVEMDTFQIECLKDGTWSNKIPTCKIVDCRAPGELEHGLITFSTRNNLTTYKSEIKYSCQEPYYKMLNNNTGIYTCSAQGVWMNKVLGRSLPTCLPVCGLPKFSRKLMARIFNGRPAQKGTTPWIAMLSHLNGQPFCGGSLLGSSWIVTAAHCLHQSLDPKDPTLRDSDLLSPSDFKIILGKHWRLRSDENEQHLGVKHTTLHPKYDPNTFENDVALVELLESPVLNAFVMPICLPEGPQQEGAMVIVSGWGKQFLQRFPETLMEIEIPIVDHSTCQKAYAPLKKKVTRDMICAGEKEGGKDACSGDSGGPMVTLNRERGQWYLVGTVSWGDDCGKKDRYGVYSYIHHNKDWIQRVTGVRNHHHHHH
For B2, the “cleavage of pro-factor D (Western blot)” value was “only full length MASP-3 (lane 2) and the MASP-1 CCP1-CCP2-SP) fragment (lane 5) cleaved ST-pro-factor D-His6” in the series with ST-pro-factor D-His; “Identical results were obtained with the pro-factor D-His6 polypeptide (not shown)” in the series with pro-factor D-His.

B3: catalytically-inactive MASP-1 (S646A) (protein)
chain: HTVELNNMFGQIQSPGYPDSYPSDSEVTWNITVPDGFRIKLYFMHFNLESSYLCEYDYVKVETEDQVLATFCGRETTDTEQTPGQEVVLSPGSFMSITFRSDFSNEERFTGFDAHYMAVDVDECKEREDEELSCDHYCHNYIGGYYCSCRFGYILHTDNRTCRVECSDNLFTQRTGVITSPDFPNPYPKSSECLYTIELEEGFMVNLQFEDIFDIEDHPEVPCPYDYIKIKVGPKVLGPFCGEKAPEPISTQSHSVLILFHSDNSGENRGWRLSYRAAGNECPELQPPVHGKIEPSQAKYFFKDQVLVSCDTGYKVLKDNVEMDTFQIECLKDGTWSNKIPTCKIVDCRAPGELEHGLITFSTRNNLTTYKSEIKYSCQEPYYKMLNNNTGIYTCSAQGVWMNKVLGRSLPTCLPVCGLPKFSRKLMARIFNGRPAQKGTTPWIAMLSHLNGQPFCGGSLLGSSWIVTAAHCLHQSLDPEDPTLRDSDLLSPSDFKIILGKHWRLRSDENEQHLGVKHTTLHPQYDPNTFENDVALVELLESPVLNAFVMPICLPEGPQQEGAMVIVSGWGKQFLQRFPETLMEIEIPIVDHSTCQKAYAPLKKKVTRDMICAGEKEGGKDACAGDAGGPMVTLNRERGQWYLVGTVSWGDDCGKKDRYGVYSYIHHNKDWIQRVTGVRN
Turning to B3, the “cleavage of pro-factor D (Western blot)” value with pro-factor D-His, P00746 was “The catalytically-inactive full length MASP-3 (S679A; lane 3) and MASP-1 (S646A; lane 3) failed to cleave either substrate”; in series [2], “The catalytically-inactive full length MASP-3 (S679A; lane 3) and MASP-1 (S646A; lane 3) failed to cleave either substrate”.
